Reference: patent US20150307603A1 (MODIQUEST B V, published 2015)
Non-standard residues stand in square brackets, D forms with d. No end group written: not given here. Cit = NC(=O)NCCC[C@H](N)C(=O)O

Assays:
[1] = target: T1, peptide no. 8 (human histone 2A) (human, also: biotin-labelled); test: ELISA, Ab 10 ug/well
T1 construct: also called peptide 8
T1 peptide: AGNAA[Cit]DNKKTR
Description: (§1) Biotin and citrulline-containing peptides derived from histone 2A were immobilized on NEUTRAVIDIN®-coated 96-well ELISA plates (0.3 μg/well). CFC-1 and CFC-0 were coated at the same concentration and served as positive and negative controls, respectively, for specific anti-citrulline reactivity and as coating controls. Non-coated wells were used to test for aspecific binding of the antibodies. […] Detection of bound anti-citrulline antibodies was performed by incubating the wells with rabbit anti-human HRP (1:2000) for 1 hour at RT followed by incubation with TMB substrate. The resulting OD (y-axis) is a measure for antibody binding.

[2] = target: T2, peptide no. 9 (human histone 2A) (human, also: biotin-labelled); test: ELISA, Ab 10 ug/well
T2 construct: also called peptide 9
T2 peptide: DNKKT[Cit]IIPRHL
Description: as §1

[3] = target: T3, peptide no. 1 (human histone 2A) (human, also: biotin-labelled); test: ELISA, Ab 10 ug/well
T3 construct: also called peptide 1; AAASGXGKQGGK
T3 peptide: AAASG[Cit]GKQGGK
Description: as §1

[4] = target: T4, peptide no. 10 (human histone 2A) (human, also: biotin-labelled); test: ELISA, Ab 10 ug/well
T4 construct: also called peptide 10
T4 peptide: TRIIP[Cit]HLQLAI
Description: as §1

[5] = target: T5, peptide no. 5 (human histone 2A) (human, also: biotin-labelled); test: ELISA, Ab 10 ug/well
T5 construct: also called peptide 5
T5 peptide: VGRVH[Cit]LLRKGN
Description: as §1

CFC-1 [6] = target: T6, CFC-1; test: ELISA, Ab 10 ug/well
T6 construct: Positive control for anti-citrulline reactivity; also called cfc1 XG; Cfc1-peptide
Description: as §1

[7] = target: T7, peptide no. 2 (human histone 2A) (human, also: biotin-labelled); test: ELISA, Ab 10 ug/well
T7 construct: also called peptide 2
T7 peptide: AKAKS[Cit]SSRAGL
Description: as §1

[8] = target: T8, peptide no. 6 (human histone 2A) (human, also: biotin-labelled); test: ELISA, Ab 10 ug/well
T8 construct: also called peptide 6
T8 peptide: VHRLL[Cit]KGNYSE
Description: as §1

[9] = target: T9, peptide no. 11 (human histone 2A) (human, also: biotin-labelled); test: ELISA, Ab 10 ug/well
T9 construct: also called peptide 11
T9 peptide: LQLAI[Cit]NDEELN
Description: as §1

[10] = target: T10, peptide no. 12 (human histone 2A) (human, also: biotin-labelled); test: ELISA, Ab 10 ug/well
T10 construct: also called peptide 12
T10 peptide: NKLLG[Cit]VTIAQG
Description: as §1

[11] = target: T11, peptide no. 3 (human histone 2A) (human, also: biotin-labelled); test: ELISA, Ab 10 ug/well
T11 construct: also called peptide 3
T11 peptide: KSRSS[Cit]AGLQFP
Description: as §1

[12] = target: T12, peptide no. 7 (human histone 2A) (human, also: biotin-labelled); test: ELISA, Ab 10 ug/well
T12 construct: also called peptide 7
T12 peptide: GNYSE[Cit]VGAGAP
Description: as §1

[13] = target: T13, peptide no. 4 (human histone 2A) (human, also: biotin-labelled); test: ELISA, Ab 10 ug/well
T13 construct: also called peptide 4
T13 peptide: QFPVG[Cit]VHRLLR
Description: as §1

[14] = target: T1, peptide no. 8 (human histone 2A); test: ELISA, Ab 0.000128 ug/well
Description: as §1

[15] = target: T2, peptide no. 9 (human histone 2A); test: ELISA, Ab 0.000128 ug/well
Description: as §1

[16] = target: T3, peptide no. 1 (human histone 2A); test: ELISA, Ab 0.000128 ug/well
Description: as §1

[17] = target: T4, peptide no. 10 (human histone 2A); test: ELISA, Ab 0.000128 ug/well
Description: as §1

[18] = target: T5, peptide no. 5 (human histone 2A); test: ELISA, Ab 0.000128 ug/well
Description: as §1

CFC-1 [19] = target: T6, CFC-1; test: ELISA, Ab 0.000128 ug/well
Description: as §1

[20] = target: T7, peptide no. 2 (human histone 2A); test: ELISA, Ab 0.000128 ug/well
Description: as §1

[21] = target: T8, peptide no. 6 (human histone 2A); test: ELISA, Ab 0.000128 ug/well
Description: as §1

[22] = target: T9, peptide no. 11 (human histone 2A); test: ELISA, Ab 0.000128 ug/well
Description: as §1

[23] = target: T11, peptide no. 3 (human histone 2A); test: ELISA, Ab 0.000128 ug/well
Description: as §1

[24] = target: T1, peptide no. 8 (human histone 2A); test: ELISA, Ab 0.08 ug/well
Description: as §1

[25] = target: T3, peptide no. 1 (human histone 2A); test: ELISA, Ab 0.08 ug/well
Description: as §1

[26] = target: T5, peptide no. 5 (human histone 2A); test: ELISA, Ab 0.08 ug/well
Description: as §1

CFC-1 [27] = target: T6, CFC-1; test: ELISA, Ab 0.08 ug/well
Description: as §1

[28] = target: T9, peptide no. 11 (human histone 2A); test: ELISA, Ab 0.08 ug/well
Description: as §1

[29] = target: T10, peptide no. 12 (human histone 2A); test: ELISA, Ab 0.08 ug/well
Description: as §1

[30] = target: T11, peptide no. 3 (human histone 2A); test: ELISA, Ab 0.08 ug/well
Description: as §1

[31] = target: T13, peptide no. 4 (human histone 2A); test: ELISA, Ab 0.08 ug/well
Description: as §1

[32] = target: ribosomal protein L29 [Homo sapiens] (Homo sapiens); test: IP of deiminated HEK293 lysate + MS emPAI; reference RhmAb2.101
Description: (§2) Beads were subjected to three washes with 1 ml IPP500, one wash with 1 ml IPP150 (10 mM Tris/HCl pH 8.0, 150 mM NaCl, 0.1% NP40 and 0.1% TWEEN®-20), and subsequently incubated at room temperature with 300 p1 deiminated HEK293 lysate for 2 hours under constant rotation. Beads were washed three times with 1 ml of IPP150, after which a small part has been used for SDS-PAGE electrophoresis to determine if the IP procedure with the HEK293 cells was successful.
(§3) The exponentially modified protein abundance index (emPAI) was calculated for all validated proteins.

[33] = target: PREDICTED: similar to 60S ribosomal protein L29 (Cell surface heparin-binding protein HIP) [Homo sapiens] (Homo sapiens); test: as above
Description: as §2, §3

B1: RhmAb2.102 (antibody, human IgG1, lambda)
heavy: not shown
light: QSVLTQPPSMSAAPGQKVTISCSGSSSNIGNNYVSWYQQVPGTAPKLLIYDDNKRPSGIPGRFSGSKSATSATLGITGLQAGDEADYYCGSWDDNLSVVLFGGGTKLTVLGQPKAAPSVTLFPPSSEELQANKATLVCLISDFYPGAVTVAWKADSSPVKAGVETTTPSKQSNNKYAASSYLSLTPEQWKSHRSYSCQVTHEGSTVEKTVAPTECS
notes: Human IgG1 lambda; also called Rhm2.102
OD [1]: 0.082 OD450
OD [2]: 0.09 OD450
OD [3]: 3.11 OD450
OD [4]: 0.091 OD450
OD [5]: 0.239 OD450
OD (CFC-1 [6]): 3.27 OD450
OD [7]: 0.552 OD450
OD [8]: 1.41 OD450
OD [9]: 0.088 OD450
OD [10]: 0.083 OD450
OD [11]: 0.619 OD450
OD [12]: 0.08 OD450
OD [13]: 2.06 OD450
OD [14]: 0.055 OD450
OD [15]: 0.055 OD450
OD [16]: 0.128 OD450
OD [17]: 0.057 OD450
OD [18]: 0.059 OD450
OD (CFC-1 [19]): 0.749 OD450
OD [20]: 0.075 OD450
OD [21]: 0.054 OD450
OD [22]: 0.059 OD450
OD [23]: 0.063 OD450
OD [24]: 0.06 OD450
OD [25]: 2.04 OD450
OD [26]: 0.066 OD450
OD (CFC-1 [27]): 2.66 OD450
OD [28]: 0.064 OD450
OD [29]: 0.06 OD450
OD [30]: 0.091 OD450
OD [31]: 0.192 OD450
Ratio 102/101 (emPAI) [32]: 0.5 ratio
Ratio 102/101 (emPAI) [33]: 1 ratio
